Data on four molecules can be found in US20200024360A1 (Janssen / Centocor, published 2020).

Experiment [1] deals with T1, human PSMA (prostate specific membrane antigen), full length (human, UniProt Q04609 1-750).
T1 construct: On LNCaP or C4-2B cells (endogenous) or transduced HEK293F cells; also called FOLH1_HUMAN; hPSMA
Description: flow cytometry, bispecific antibody titrated on LNCaP cells (human PSMA), anti-human kappa light chain PE. Here is the method: (§1) PSMA×CD3 bispecific antibodies were tested for binding to PSMA positive cell lines LNCAP, human PSMA-HEK, Chimpanzee-PSMA-HEK and Cynomolgous monkey PSMA-HEK. To assess the binding capabilities of the PSMA bispecific antibodies, the cell-binding assay was utilized (described previously). Briefly, PSMA expressing tumor cells are bound by bispecific antibodies at known concentrations and the bound antibody is detected by an anti-human kappa light chain PE conjugated detection reagent (Invitrogen). The Mean Fluorescents Intensity (MFI) is the measure of bound bispecific antibody. The MFI is converted to a relative EC₅₀. EC₅₀ is a commonly used dose-response curve, where the half maximal effective concentration or the EC₅₀ point is defined as the inflection point of the curve. EC₅₀ s were determined by measuring cell bound bispecific and known concentrations. […] The dose response curves were then diluted down to that of background or no bispecific binding. The inflection point of this curve reflects the EC₅₀ point. The calculated EC₅₀ is determined by taking the ug/ml amount of bispecific antibody at the EC₅₀ point and converting it to a molarity value based on the MW of the bispecific antibody. Bispecific antibodies were normalized for protein concentration and then incubated with the same number of cells expressing either human or cyno PSMA. The MFI at each concentration was collected by flow cytometry and plotted as a function of concentration. Data was transformed via log 10 and then plotted. Nonlinear regression of binding curves was done to determine EC₅₀ s. These relative values were used for ranking PSMA binding to target cells.

Experiment [2] deals with T2, Cynomolgous monkey PSMA, full length (Macaca fascicularis, UniProt Q04609 1-750 (human entry)).
T2 construct: On transfected HEK293F cells; also called cyno PSMA; EHH56646.1
T2 chain: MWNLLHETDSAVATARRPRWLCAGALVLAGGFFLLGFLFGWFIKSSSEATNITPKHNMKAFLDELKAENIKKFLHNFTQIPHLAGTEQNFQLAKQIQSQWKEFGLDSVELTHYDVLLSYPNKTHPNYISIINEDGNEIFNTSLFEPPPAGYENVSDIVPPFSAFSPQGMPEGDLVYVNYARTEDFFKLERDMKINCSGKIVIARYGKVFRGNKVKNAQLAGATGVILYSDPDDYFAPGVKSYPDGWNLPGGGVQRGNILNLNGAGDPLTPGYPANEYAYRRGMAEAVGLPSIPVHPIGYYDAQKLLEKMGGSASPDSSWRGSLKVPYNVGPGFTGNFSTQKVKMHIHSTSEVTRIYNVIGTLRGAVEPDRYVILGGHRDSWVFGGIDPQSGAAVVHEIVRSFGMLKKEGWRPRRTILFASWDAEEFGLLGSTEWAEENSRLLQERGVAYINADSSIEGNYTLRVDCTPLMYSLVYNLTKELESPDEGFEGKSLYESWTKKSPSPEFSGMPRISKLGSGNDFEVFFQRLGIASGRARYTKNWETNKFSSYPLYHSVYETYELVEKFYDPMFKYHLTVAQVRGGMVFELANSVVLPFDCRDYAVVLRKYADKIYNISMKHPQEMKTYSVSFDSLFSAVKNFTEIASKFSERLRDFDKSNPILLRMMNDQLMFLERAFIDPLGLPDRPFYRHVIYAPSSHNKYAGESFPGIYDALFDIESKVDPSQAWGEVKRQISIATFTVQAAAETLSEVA
As to the kind of experiment: FACS, whole cell binding, cyno PSMA HEK. On the procedure: as §1

The target in experiment [3] is T3, chimpanzee PSMA, full length (Pan troglodytes, UniProt Q04609 1-750 (human entry)).
T3 construct: On transfected HEK293F cells; also called chimp PSMA; H2Q3K5_PANTR
T3 chain: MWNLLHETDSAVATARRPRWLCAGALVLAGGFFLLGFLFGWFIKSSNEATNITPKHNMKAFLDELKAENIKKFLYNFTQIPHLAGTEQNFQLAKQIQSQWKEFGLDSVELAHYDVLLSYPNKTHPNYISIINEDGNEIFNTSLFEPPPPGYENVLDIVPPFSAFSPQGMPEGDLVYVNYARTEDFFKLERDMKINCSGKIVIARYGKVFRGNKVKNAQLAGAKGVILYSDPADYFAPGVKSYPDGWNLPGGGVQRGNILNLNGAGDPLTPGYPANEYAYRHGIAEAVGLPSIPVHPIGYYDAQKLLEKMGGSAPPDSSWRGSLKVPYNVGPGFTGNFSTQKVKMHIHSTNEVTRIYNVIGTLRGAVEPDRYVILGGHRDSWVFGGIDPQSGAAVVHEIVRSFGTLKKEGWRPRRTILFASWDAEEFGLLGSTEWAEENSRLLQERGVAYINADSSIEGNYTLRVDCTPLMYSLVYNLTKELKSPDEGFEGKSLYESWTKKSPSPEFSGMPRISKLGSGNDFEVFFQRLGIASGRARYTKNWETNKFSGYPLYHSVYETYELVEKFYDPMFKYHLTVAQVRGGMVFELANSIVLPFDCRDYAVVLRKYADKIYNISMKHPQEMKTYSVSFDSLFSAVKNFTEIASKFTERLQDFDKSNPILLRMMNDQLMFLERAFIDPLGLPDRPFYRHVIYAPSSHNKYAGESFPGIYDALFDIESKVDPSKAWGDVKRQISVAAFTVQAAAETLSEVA
As to the kind of experiment: FACS, whole cell binding, chimp PSMA HEK. On the procedure: as §1
For orientation: In flow cytometry, cells or beads pass a laser one at a time.

For experiment [4], the target named is T1, human PSMA (prostate specific membrane …). As to the kind of experiment: FACS, whole cell binding, LNCaP; calculated EC50. On the procedure: as §1
Experiment [5] deals with T3, chimpanzee PSMA, full length. Description: FACS, whole cell binding, chimp PSMA HEK; calculated EC50. Here is the method: as §1
In experiment [6] the target is T1, human PSMA (prostate specific membrane …). Description: FACS, whole cell binding, LNCaP. On the procedure:
as §1

Experiment [7] deals with T2, Cynomolgous monkey PSMA, full length. Description: FACS, whole cell binding, cyno PSMA HEK; calculated EC50. Here is the method: as §1

B1: PS3B9 (M84) (bispecific antibody, human IgG4 S228P, kappa, lambda, F234A L235A)
heavy chain, PSMA arm (PSMB127): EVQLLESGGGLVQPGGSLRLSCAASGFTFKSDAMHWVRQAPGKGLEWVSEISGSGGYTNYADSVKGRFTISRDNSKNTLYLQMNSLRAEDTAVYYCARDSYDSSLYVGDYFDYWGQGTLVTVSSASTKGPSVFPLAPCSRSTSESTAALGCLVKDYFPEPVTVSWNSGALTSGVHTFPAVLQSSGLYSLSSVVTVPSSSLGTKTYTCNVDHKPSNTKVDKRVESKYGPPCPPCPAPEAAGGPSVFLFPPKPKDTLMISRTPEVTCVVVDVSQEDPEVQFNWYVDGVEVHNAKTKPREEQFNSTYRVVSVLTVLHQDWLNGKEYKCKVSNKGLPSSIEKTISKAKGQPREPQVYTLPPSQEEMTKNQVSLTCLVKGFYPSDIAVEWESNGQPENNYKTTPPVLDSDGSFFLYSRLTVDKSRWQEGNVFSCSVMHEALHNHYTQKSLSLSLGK
light chain, PSMA arm (PSMB127): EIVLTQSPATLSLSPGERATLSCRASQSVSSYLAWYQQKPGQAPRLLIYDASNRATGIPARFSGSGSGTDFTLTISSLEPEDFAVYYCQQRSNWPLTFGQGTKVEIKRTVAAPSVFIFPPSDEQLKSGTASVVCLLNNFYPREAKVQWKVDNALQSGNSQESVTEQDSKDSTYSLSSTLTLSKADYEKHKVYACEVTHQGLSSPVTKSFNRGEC
heavy chain, CD3 arm (CD3B217): EVQLLESGGGLVQPGGSLRLSCAASGFTFNTYAMNWVRQAPGKGLEWVARIRSKYNNYATYYADSVKGRFTISRDNSKNTLYLQMNSLRAEDTAVYYCVKHGNFGNSYVSWFAYWGQGTLVTVSSASTKGPSVFPLAPCSRSTSESTAALGCLVKDYFPEPVTVSWNSGALTSGVHTFPAVLQSSGLYSLSSVVTVPSSSLGTKTYTCNVDHKPSNTKVDKRVESKYGPPCPPCPAPEAAGGPSVFLFPPKPKDTLMISRTPEVTCVVVDVSQEDPEVQFNWYVDGVEVHNAKTKPREEQFNSTYRVVSVLTVLHQDWLNGKEYKCKVSNKGLPSSIEKTISKAKGQPREPQVYTLPPSQEEMTKNQVSLTCLVKGFYPSDIAVEWESNGQPENNYKTTPPVLDSDGSFLLYSKLTVDKSRWQEGNVFSCSVMHEALHNHYTQKSLSLSLGK
light chain, CD3 arm (CD3B217): QAVVTQEPSLTVSPGGTVTLTCRSSTGAVTTSNYANWVQQKPGQAPRGLIGGTNKRAPGTPARFSGSLLGGKAALTLSGAQPEDEAEYYCALWYSNLWVFGGGTKLTVLGQPKAAPSVTLFPPSSEELQANKATLVCLISDFYPGAVTVAWKADSSPVKAGVETTTPSKQSNNKYAASSYLSLTPEQWKSHRSYSCQVTHEGSTVEKTVAPTECS
notes: also called PSMB127 x CD3B217
A word on the EC50 (read off the curve): it is the midpoint of the concentration-response curve. Turning to B1, the “EC50 (read off the curve)” value in experiment [1] was roughly 2 µg/mL.

B2: PS3B26 (bispecific antibody, human IgG4 S228P, kappa, lambda, F234A L235A)
heavy 1: not shown
light 1: not shown
heavy 2: EVQLVESGGGLVQPGGSLRLSCAASGFTFNTYAMNWVRQAPGKGLEWVARIRSKYNNYATYYAASVKGRFTISRDDSKNSLYLQMNSLKTEDTAVYYCARHGNFGNSYVSWFAYWGQGTLVTVSSASTKGPSVFPLAPCSRSTSESTAALGCLVKDYFPEPVTVSWNSGALTSGVHTFPAVLQSSGLYSLSSVVTVPSSSLGTKTYTCNVDHKPSNTKVDKRVESKYGPPCPPCPAPEAAGGPSVFLFPPKPKDTLMISRTPEVTCVVVDVSQEDPEVQFNWYVDGVEVHNAKTKPREEQFNSTYRVVSVLTVLHQDWLNGKEYKCKVSNKGLPSSIEKTISKAKGQPREPQVYTLPPSQEEMTKNQVSLTCLVKGFYPSDIAVEWESNGQPENNYKTTPPVLDSDGSFLLYSKLTVDKSRWQEGNVFSCSVMHEALHNHYTQKSLSLSLGK
light 2: QTVVTQEPSLTVSPGGTVTLTCRSSTGAVTTSNYANWVQQKPGQAPRGLIGGTNKRAPGTPARFSGSLLGGKAALTLSGVQPEDEAEYYCALWYSNLWVFGGGTKLTVLGQPKAAPSVTLFPPSSEELQANKATLVCLISDFYPGAVTVAWKADSSPVKAGVETTTPSKQSNNKYAASSYLSLTPEQWKSHRSYSCQVTHEGSTVEKTVAPTECS
notes: IgG4 PAA; PSMA arm chains first, then CD3 arm (F405L, R409K); also called PSMB126 x CD3B219
In general, EC50 refers to the concentration at which the effect is half-maximal. Regarding B2, the EC50 in experiment [2] was 0.371 µg/mL; in experiment [3], 0.05 µg/mL; in experiment [4] it was 0.5 nM; in experiment [5], 0.34 nM; in experiment [6] it was 0.0715 µg/mL; in experiment [7] it was 2.6 nM.

B3: PS3B8 (M81) (bispecific antibody, human IgG4 S228P, kappa, lambda, F234A L235A)
heavy chain, PSMA arm (PSMB126): not shown
light chain, PSMA arm (PSMB126): not shown
heavy chain, CD3 arm (CD3B217): EVQLLESGGGLVQPGGSLRLSCAASGFTFNTYAMNWVRQAPGKGLEWVARIRSKYNNYATYYADSVKGRFTISRDNSKNTLYLQMNSLRAEDTAVYYCVKHGNFGNSYVSWFAYWGQGTLVTVSSASTKGPSVFPLAPCSRSTSESTAALGCLVKDYFPEPVTVSWNSGALTSGVHTFPAVLQSSGLYSLSSVVTVPSSSLGTKTYTCNVDHKPSNTKVDKRVESKYGPPCPPCPAPEAAGGPSVFLFPPKPKDTLMISRTPEVTCVVVDVSQEDPEVQFNWYVDGVEVHNAKTKPREEQFNSTYRVVSVLTVLHQDWLNGKEYKCKVSNKGLPSSIEKTISKAKGQPREPQVYTLPPSQEEMTKNQVSLTCLVKGFYPSDIAVEWESNGQPENNYKTTPPVLDSDGSFLLYSKLTVDKSRWQEGNVFSCSVMHEALHNHYTQKSLSLSLGK
light chain, CD3 arm (CD3B217): QAVVTQEPSLTVSPGGTVTLTCRSSTGAVTTSNYANWVQQKPGQAPRGLIGGTNKRAPGTPARFSGSLLGGKAALTLSGAQPEDEAEYYCALWYSNLWVFGGGTKLTVLGQPKAAPSVTLFPPSSEELQANKATLVCLISDFYPGAVTVAWKADSSPVKAGVETTTPSKQSNNKYAASSYLSLTPEQWKSHRSYSCQVTHEGSTVEKTVAPTECS
notes: also called PSMB126 x CD3B217
As for B3, in experiment [1], the “EC50 (read off the curve)” value is roughly 0.1 µg/mL.

B4: PS3B4 (M52) (bispecific antibody, human IgG4 S228P, kappa, lambda, F234A L235A)
heavy chain, PSMA arm (PSMB122): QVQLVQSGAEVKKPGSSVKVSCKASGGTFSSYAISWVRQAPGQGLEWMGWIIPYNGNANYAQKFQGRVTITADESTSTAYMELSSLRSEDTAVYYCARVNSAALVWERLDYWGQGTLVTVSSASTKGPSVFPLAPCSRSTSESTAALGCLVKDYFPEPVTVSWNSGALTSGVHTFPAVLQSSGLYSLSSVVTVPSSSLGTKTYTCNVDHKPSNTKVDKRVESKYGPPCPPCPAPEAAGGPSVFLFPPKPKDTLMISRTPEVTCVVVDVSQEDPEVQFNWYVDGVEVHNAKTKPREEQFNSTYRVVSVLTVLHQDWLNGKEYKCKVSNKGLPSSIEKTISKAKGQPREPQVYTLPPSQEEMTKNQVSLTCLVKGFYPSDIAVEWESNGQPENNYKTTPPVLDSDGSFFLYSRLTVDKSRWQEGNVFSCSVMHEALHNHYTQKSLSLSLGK
light chain, PSMA arm (PSMB122): DIQMTQSPSSLSASVGDRVTITCRASQSIDRWLNWYQQKPGKAPKLLIYAASSLQSGVPSRFSGSGSGTDFTLTISSLQPEDFATYYCQQSPRYPLTFGQGTKVEIKRTVAAPSVFIFPPSDEQLKSGTASVVCLLNNFYPREAKVQWKVDNALQSGNSQESVTEQDSKDSTYSLSSTLTLSKADYEKHKVYACEVTHQGLSSPVTKSFNRGEC
heavy chain, CD3 arm (CD3B217): EVQLLESGGGLVQPGGSLRLSCAASGFTFNTYAMNWVRQAPGKGLEWVARIRSKYNNYATYYADSVKGRFTISRDNSKNTLYLQMNSLRAEDTAVYYCVKHGNFGNSYVSWFAYWGQGTLVTVSSASTKGPSVFPLAPCSRSTSESTAALGCLVKDYFPEPVTVSWNSGALTSGVHTFPAVLQSSGLYSLSSVVTVPSSSLGTKTYTCNVDHKPSNTKVDKRVESKYGPPCPPCPAPEAAGGPSVFLFPPKPKDTLMISRTPEVTCVVVDVSQEDPEVQFNWYVDGVEVHNAKTKPREEQFNSTYRVVSVLTVLHQDWLNGKEYKCKVSNKGLPSSIEKTISKAKGQPREPQVYTLPPSQEEMTKNQVSLTCLVKGFYPSDIAVEWESNGQPENNYKTTPPVLDSDGSFLLYSKLTVDKSRWQEGNVFSCSVMHEALHNHYTQKSLSLSLGK
light chain, CD3 arm (CD3B217): QAVVTQEPSLTVSPGGTVTLTCRSSTGAVTTSNYANWVQQKPGQAPRGLIGGTNKRAPGTPARFSGSLLGGKAALTLSGAQPEDEAEYYCALWYSNLWVFGGGTKLTVLGQPKAAPSVTLFPPSSEELQANKATLVCLISDFYPGAVTVAWKADSSPVKAGVETTTPSKQSNNKYAASSYLSLTPEQWKSHRSYSCQVTHEGSTVEKTVAPTECS
notes: also called PSMB122 x CD3B217
Regarding B4, the “EC50 (read off the curve)” value in experiment [1] was roughly 2 µg/mL.
